Source: article PMC9424733, “Lysine acetylation of Escherichia coli lactate dehydrogenase regulates enzyme activity and lactate synthesis” (Frontiers in Bioengineering and Biotechnology, 2022)

Target: the molecule itself
Assay: SEC; gel filtration analysis of purified LdhA and mutants; retention volumes of the highest peaks compared; column and buffer not told

| Protein | stoichiometry N |
| --- | --- |
| Escherichia coli lactate dehydrogenase (LdhA), wild type (enzyme, UniProt P52643 1-329, looked up, D-lactate dehydrogenase LdhA of Escherichia coli; Partly acetylated on K9, K70, K154 and K248 when grown with 2% glucose (mass spectrometry); also called EcLdhA; NAD-dependent lactate dehydrogenase) MKLAVYSTKQYDKKYLQQVNESFGFELEFFDFLLTEKTAKTANGCEAVCIFVNDDGSRPVLEELKKHGVKYIALRCAGFNNVDLDAAKELGLKVVRVPAYDPEAVAEHAIGMMMTLNRRIHRAYQRTRDANFSLEGLTGFTMYGKTAGVIGTGKIGVAMLRILKGFGMRLLAFDPYPSAAALELGVEYVDLPTLFSESDVISLHCPLTPENYHLLNEAAFEQMKNGVMIVNTSRGALIDSQAAIEALKNQKIGSLGMDVYENERDLFFEDKSNDVIQDDVFRRLSACHNVLFTGHQAFLTAEALTSISQTTLQNLSNLEKGETCPNELV | 4 |
| Escherichia coli LdhA (K248R) (enzyme, UniProt P52643 1-329, looked up, D-lactate dehydrogenase LdhA of Escherichia coli with K248R; Same construct as m1 with the point mutation; also called LdhA K248R mutant) MKLAVYSTKQYDKKYLQQVNESFGFELEFFDFLLTEKTAKTANGCEAVCIFVNDDGSRPVLEELKKHGVKYIALRCAGFNNVDLDAAKELGLKVVRVPAYDPEAVAEHAIGMMMTLNRRIHRAYQRTRDANFSLEGLTGFTMYGKTAGVIGTGKIGVAMLRILKGFGMRLLAFDPYPSAAALELGVEYVDLPTLFSESDVISLHCPLTPENYHLLNEAAFEQMKNGVMIVNTSRGALIDSQAAIEALRNQKIGSLGMDVYENERDLFFEDKSNDVIQDDVFRRLSACHNVLFTGHQAFLTAEALTSISQTTLQNLSNLEKGETCPNELV | 4 |
| Escherichia coli LdhA (K248Q) (enzyme, UniProt P52643 1-329, looked up, D-lactate dehydrogenase LdhA of Escherichia coli with K248Q (mimics acetyl-lysine); Same construct as m1 with the point mutation; also called LdhA K248Q mutant) MKLAVYSTKQYDKKYLQQVNESFGFELEFFDFLLTEKTAKTANGCEAVCIFVNDDGSRPVLEELKKHGVKYIALRCAGFNNVDLDAAKELGLKVVRVPAYDPEAVAEHAIGMMMTLNRRIHRAYQRTRDANFSLEGLTGFTMYGKTAGVIGTGKIGVAMLRILKGFGMRLLAFDPYPSAAALELGVEYVDLPTLFSESDVISLHCPLTPENYHLLNEAAFEQMKNGVMIVNTSRGALIDSQAAIEALQNQKIGSLGMDVYENERDLFFEDKSNDVIQDDVFRRLSACHNVLFTGHQAFLTAEALTSISQTTLQNLSNLEKGETCPNELV | 4 |
| Escherichia coli LdhA (D279N) (enzyme, UniProt P52643 1-329, looked up, D-lactate dehydrogenase LdhA of Escherichia coli with D279N; Same construct as m1 with the point mutation; also called LdhA D279N mutant) MKLAVYSTKQYDKKYLQQVNESFGFELEFFDFLLTEKTAKTANGCEAVCIFVNDDGSRPVLEELKKHGVKYIALRCAGFNNVDLDAAKELGLKVVRVPAYDPEAVAEHAIGMMMTLNRRIHRAYQRTRDANFSLEGLTGFTMYGKTAGVIGTGKIGVAMLRILKGFGMRLLAFDPYPSAAALELGVEYVDLPTLFSESDVISLHCPLTPENYHLLNEAAFEQMKNGVMIVNTSRGALIDSQAAIEALKNQKIGSLGMDVYENERDLFFEDKSNDVIQDNVFRRLSACHNVLFTGHQAFLTAEALTSISQTTLQNLSNLEKGETCPNELV | 4 |
